“And” between values parts separate entries of the source, which are not always exact repeats. Equal values may be shown once.
Legend:
[1] = molecular target: the molecule itself; assay: cryo-EM 2D classification
cryo-EM structure = molecular target: the molecule itself; assay: cryo-EM structure

B1: full-length mature human contactin-2 (CNTN2), residues 29-1012, wild type (natural protein, UniProt Q02246 29-1012, looked up)
chain: LGSQTTFGPVFEDQPLSVLFPEESTEEQVLLACRARASPPATYRWKMNGTEMKLEPGSRHQLVGGNLVIMNPTKAQDAGVYQCLASNPVGTVVSREAILRFGFLQEFSKEERDPVKAHEGWGVMLPCNPPAHYPGLSYRWLLNEFPNFIPTDGRHFVSQTTGNLYIARTNASDLGNYSCLATSHMDFSTKSVFSKFAQLNLAAEDTRLFAPSIKARFPAETYALVGQQVTLECFAFGNPVPRIKWRKVDGSLSPQWTTAEPTLQIPSVSFEDEGTYECEAENSKGRDTVQGRIIVQAQPEWLKVISDTEADIGSNLRWGCAAAGKPRPTVRWLRNGEPLASQNRVEVLAGDLRFSKLSLEDSGMYQCVAENKHGTIYASAELAVQALAPDFRLNPVRRLIPAARGGEILIPCQPRAAPKAVVLWSKGTEILVNSSRVTVTPDGTLIIRNISRSDEGKYTCFAENFMGKANSTGILSVRDATKITLAPSSADINLGDNLTLQCHASHDPTMDLTFTWTLDDFPIDFDKPGGHYRRTNVKETIGDLTILNAQLRHGGKYTCMAQTVVDSASKEATVLVRGPPGPPGGVVVRDIGDTTIQLSWSRGFDNHSPIAKYTLQARTPPAGKWKQVRTNPANIEGNAETAQVLGLTPWMDYEFRVIASNILGTGEPSGPSSKIRTREAAPSVAPSGLSGGGGAPGELIVNWTPMSREYQNGDGFGYLLSFRRQGSTHWQTARVPGADAQYFVYSNESVRPYTPFEVKIRSYNRRGDGPESLTALVYSAEEEPRVAPTKVWAKGVSSSEMNVTWEPVQQDMNGILLGYEIRYWKAGDKEAAADRVRTAGLDTSARVSGLHPNTKYHVTVRAYNRAGTGPASPSANATTMKPPPRRPPGNISWTFSSSSLSIKWDPVVPFRNESAVTGYKMLYQNDLHLTPTLHLTGKNWIEIPVPEDIGHALVQIRTTGPGGDGIPAEVHIVRNGGTSMMVEN
modifications: N-linked glycans at Asn76, Asn198, Asn461, Asn477, Asn498, Asn525 (densities in the cryo-EM map)
Q: Which results are given for B1?
A: stoichiometry N [1]: 4 and 6; stoichiometry N (cryo-EM structure): 2

Reference: article PMC11796320 (The Febs Journal, 2024)
